In publication PMC4564341 one finds Kd and Kd2 (site 2, two-site model) data, which are given here for 2 substances.

For assay [1], the target named is CREB pKID αB peptide pKID αB helix (UniProt P16220). As to conditions: cited from earlier work.
Assay [2] deals with Mouse CBP KIX (residues 586-683) (mouse) (UniProt P45481). Description: ITC. A general note: ITC needs no label: the signal is the heat of the interaction.
The target is the same in assay [3]. Kind of assay: NMR titration.

What is called Kd is the free concentration of one partner at which half of the binding sites on the other are occupied at equilibrium, for simple one-to-one binding. As to CBP KIX (from UniProt P45481), the Kd in assay [1] is 80 µM.
“CRTC1-MAML2 TAD1 polypeptide spanning residues 150-190” had a Kd2 (site 2, two-site model) in assay [2] of 370 µM. For the same substance, in assay [3], the Kd stood at 21 µM.
